Results as given in the RNAGym collection of RNA variant scans (doi:10.1073/pnas.2313332121).
Fewer inactive variants are shown than the library holds.

B1: TPR 5TU (parent)
chain: GGAUCUUCUCGAUCUAACAAAAAAGACAAAUCUGCCACAAAGCUUGAGAGCAUCUUCGGAUGCAGAGGCGGCAGCCUUCGGUGGCGCGAUAGCGCCAACGUUCUCAACUAUGACACGCAAAACGCGUGCUCCGUUGAAUGGAGUUUAUCAUG

Variants of: B1
Experiment: polymerase ribozyme fitness, log enrichment relative to wild type (log ratio); higher = more active; in vitro selection for triplet polymerase activity
How it was run: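 Mutant libraries of each subunit of a heterodimeric triplet polymerase ribozyme were built by PCR and transcribed. Each library went through one round of in vitro selection in triplicate: annealing with biotinylated primer, partner subunit and triplets, frozen incubation at −7 °C, gel excision of extended constructs, streptavidin-bead capture and RT-PCR. Input and output libraries were Illumina-sequenced; only genotypes with ≥10 input reads and ≥1 read per output were kept. Fitness is log2(genotype enrichment/wild-type enrichment), using inverse-variance-weighted replicate averages.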

Variant	polymerase ribozyme fitness (log ratio)
GGAUCUUCUGGAUCUAACAAAAAAGACAACUCUGCCACAAAGCUUGAGAGCAUCUUCGGAUGCAGAGGCGGCAGCCUUCGGUGGCGCGAUAUCGCCAACGUUCUCAGCUAUGACACGCAAAACGCGUGCUCCGUUGAAUGGAGUUUACCUUG [C10G A30C G92U A107G U148C A150U]	≤ -4.2
GGAUCUUCUAGAUCUAACAAAAAAGACAAAUCUGCCACAAAGCUUGAGAGCAUCUUCGGAUGCAGAGGCGGCAGCCUUCGGUGGCGCGAUAGCGCUAACGUUCUCAACUAUGACACGCAAAACGCGUGCUCCGUUGAAUGGAAUUUAUCAUG [C10A C96U G143A]	≤ -4.2
GGAUCUUCUGGAUCUAACAAAAAAGACAAAUCUGCCGCAAAGCUUGAGAGCAUCUUCGGAUGCAGAGGCGGCAGCCUUCGGUGGCGCGAUACCGCCAACGUUCUCAACUAUGACACGCAAAACGCGUGCUCCGUGGGAUGGAGUUUAUGAUG [C10G A37G G92C U135G A137G C149G]	≤ -4.2
GGAUCUUCUAGAUCUAACAAAAAAGACAAAUCAGCCACAAAGCUUGAGAGCAUCUUCGGAUGCAGAGGCGGCAGCCUGCGGUGGCGCGAAAGCGCCAACGUUCUCAACUAUGACACGCAAAACGCGUGCUCCGUUGAAUAGAGUUUAUCAUG [C10A U33A U78G U90A G140A]	≤ -4.2
GGAUCUUCUAGAUCUAACAAAAAAGACAAAUCUGCCACAAAGCUUGACAGCAUCUUCGGAUGCAGAGGCGGCAGCCUUCGGGGGCGCGAUAGCGCCUACGUUCUCAACUAUGACACGCAAAACGCGUGCUCCGUUGAAUGGAGUUUAUCAUG [C10A G48C U82G A97U]	≤ -4.2
GGAUCUUCUGGAUCUAACAUAAAAGACAAAUCUGCCACAAAGCUUGAGAGCCUCUUCGGAUGCAGAGGCGGCAGCCUUCGGUGGCACGAUAUCGCCAACGUUCUCAACUAUGACUCGCAAAACGCGUGCUCCGUUGAAUGGAGUUUAUCAUA [C10G A20U A52C G86A G92U A115U G152A]	≤ -4.2
GGAUCUUCUGGAUCUUACAAAAAAGACAAAUCUGCCACAAAGCUUGAGCGGUUCUACGGAUGCAGAGGCGGCAGCCUUCGGUGGCGCGAUAGCGCCAACGUUGUCAACUAUGACACGCAAAACGCGUGCUCCGUUGAAUGGAGUUAAUCAUG [C10G A16U A49C C51G A52U U56A C103G U146A]	≤ -4.2
GGAUCUUCUGGAUCUAACAAAAAAGACGAAUCUGCCACAAAGCUUGAGAGCAUCUUCGGAUGCAGAGGCGGCAGCCUUCGGGGGCGCGAUAGCCACAACGUUCUCAACUAUGACACGCAAAACGCGUGCUCCGUUGAAUAGAGUUUAUCAUG [C10G A28G U82G G94C C95A G140A]	≤ -4.2
GGAUCUUCUGGGUCUAACAAAAAAGACAAAUCUGCCACAAAGCUUGAGAGCAUCUUCGGAUGCAGAGGCGGCAGCCUUCGGUGGCGCGAUAGCGCCAACGUUCUCAACUAUGACACGCAUAACGCGUGCUCCGUCGAAUGGAGUUUAUCAUG [C10G A12G A120U U135C]	≤ -4.2
GGAUCUUCUGGAUCUACCAAAAAAGACAAAUCUGCUACAAAGCUUGAAAGCAUCUUCGGAUGCUGAGGCGGCAGCCUUCGGUGGCGCCAUAGCGCCAACGUUCUCAACUAUGACACGGAAAACGCGUGCUCCGUUGAAUGGAGUUUAUCAUG [C10G A17C C36U G48A A64U G88C C118G]	≤ -4.2
GGAUCUUCUGGAUCUAACAAAAAAGUCCAAUCUGCCACAAAGCUUGAGAGCAUCUUCGGAUGCAGAGGCGGCAGCCUUCGGUGGCGAUAUCGCGCCAACGUUCUCAACUAUGACACGCAAAACGCGUGCUCCGUUGAAUGGAGUCUAUCAUG [C10G A26U A28C C87A G88U A91C U145C]	≤ -4.2
GGAUCUUCUAGAUCUAACAAAAAAGACAAAGCUGGCACAAACCUUGAGAGCAUCUUCGGAUGCAGAGGUGGCAGCCUUCGGUGGCGCGAUAACGGCAACAUUCUCAACUAUGACACGCAAAACGCGUGCUCCGUUGAAUGGAAUUUAUCAUG [C10A U31G C35G G42C C69U G92A C95G G100A G143A]	-3.74
GGAUCUUCUGGAUCUAACUAAAAAGACAAAUCUGCCACAAAGCUUAAGAGCAUCUUCGGAUGCAGAGGCGGCAGCCUUCGGUGGAGCGAUAGCGCCAACGUUCUUAACUAUGACACGCAAAACGCGUGCUCCGUUGAAUGGAGUUUAUCAUG [C10G A19U G46A C85A C105U]	≤ -4.2
GGAUCUUCUAGAUCUAACAAAAAAGACAAAUCUUCCACAUAGCUUGAGAGCAUCUUUGGAUGCAGAGGCGGCAGCCUGUGGUGCAGCGAUAGCGCCAACGUUCACAACUAUGACACGCACAACGCGUGCUCCGUUGAAUGGAGUUUAUCAUG [C10A G34U A40U C57U U78G C79U G84C C85A U104A A120C]	≤ -4.2
GGAUCUUCUGGAUCUAACAAUUAAGACAAAUCUGCCACAAAGCUUGAGAGCAUCAUCGCAUGCAGAGGCGGCAGCCUUCGGUGGCGCGAUAGCGCCAACGUUCUCAACUAUGACACGCAAAACGCGUGCUCCGUUGAAUGGCGUUUAUCAUG [C10G A21U A22U U55A G59C A142C]	≤ -4.2
GGAUCUUCUGGAUCUAACAUAAAAGACAAAUCUGACACAAAGCUUGAGAGCAUCUUCGGAUGCAGAGGCGGCAGCCUUCGGUGGGGCGAUAGCGCCAACGUUCUCAACUAUGACACGCAAAACGCGUGCUCCGUUGAAUGGCGUUUAUCAUG [C10G A20U C35A C85G A142C]	≤ -4.2
GGAUCUUCUAGAUCUAACAAAAAAGACAAAUCGGCCACAAAGCUUGAGAGCAUCUUCGGGUGCAGAGGCGGCAGACUUCGGUGGCGCGAUAGCGCCAACGUUCUCUACUAUGACACUCAAAACGCGUGCUCCGUUGCAUGGAGAUUAUCAUG [C10A U33G A60G C75A A106U G117U A137C U144A]	≤ -4.2
GGAUCUUCUAGAUCUAACAAAAAAGACAAAUCUUCCACAAAGCUUGAGAGCAUCUUUGGAUGCAGAGGCGGCAGCUUUCGGUGGCGCGAUAGCGGCAACGUUCUCAACUAUGACAGGCAAAACGCGUGCUCCGUUGAAUGGAGUUUAUCAUG [C10A G34U C57U C76U C95G C116G]	≤ -4.2
GGAUCUUCUAAAUCUAACAAAAAAGACAAAUCUGCCACUAAGCUUGAGAGCAUCUUCGGAUGCAGAGGCGGCAGCCUUCGGUGGCGCGAUAGAGCCAACGUUCUCAACUAUGACACGCAAAACGCGUGCUCCGUUGAAUGUAGUUUAUCAUG [C10A G11A A39U C93A G141U]	≤ -4.2
